Measurements: patent publication US7611711B2, “VEGFR-3 inhibitor materials and methods” (Vegenics Limited, priority 2001, dated 2009)
Ends that are not written are not given here. GST = glutathione-S-transferase

Molecular target: T1, VEGFR-3/EpoR chimera expressed on BaF3 cells (UniProt P14753+P35916)
T1 construct: expressed in transfected cells; host or cells: BaF3 (IL-3 dependent murine pro-B cells)
T1 sequence (P35916+P14753 with tags, fused parts or gaps): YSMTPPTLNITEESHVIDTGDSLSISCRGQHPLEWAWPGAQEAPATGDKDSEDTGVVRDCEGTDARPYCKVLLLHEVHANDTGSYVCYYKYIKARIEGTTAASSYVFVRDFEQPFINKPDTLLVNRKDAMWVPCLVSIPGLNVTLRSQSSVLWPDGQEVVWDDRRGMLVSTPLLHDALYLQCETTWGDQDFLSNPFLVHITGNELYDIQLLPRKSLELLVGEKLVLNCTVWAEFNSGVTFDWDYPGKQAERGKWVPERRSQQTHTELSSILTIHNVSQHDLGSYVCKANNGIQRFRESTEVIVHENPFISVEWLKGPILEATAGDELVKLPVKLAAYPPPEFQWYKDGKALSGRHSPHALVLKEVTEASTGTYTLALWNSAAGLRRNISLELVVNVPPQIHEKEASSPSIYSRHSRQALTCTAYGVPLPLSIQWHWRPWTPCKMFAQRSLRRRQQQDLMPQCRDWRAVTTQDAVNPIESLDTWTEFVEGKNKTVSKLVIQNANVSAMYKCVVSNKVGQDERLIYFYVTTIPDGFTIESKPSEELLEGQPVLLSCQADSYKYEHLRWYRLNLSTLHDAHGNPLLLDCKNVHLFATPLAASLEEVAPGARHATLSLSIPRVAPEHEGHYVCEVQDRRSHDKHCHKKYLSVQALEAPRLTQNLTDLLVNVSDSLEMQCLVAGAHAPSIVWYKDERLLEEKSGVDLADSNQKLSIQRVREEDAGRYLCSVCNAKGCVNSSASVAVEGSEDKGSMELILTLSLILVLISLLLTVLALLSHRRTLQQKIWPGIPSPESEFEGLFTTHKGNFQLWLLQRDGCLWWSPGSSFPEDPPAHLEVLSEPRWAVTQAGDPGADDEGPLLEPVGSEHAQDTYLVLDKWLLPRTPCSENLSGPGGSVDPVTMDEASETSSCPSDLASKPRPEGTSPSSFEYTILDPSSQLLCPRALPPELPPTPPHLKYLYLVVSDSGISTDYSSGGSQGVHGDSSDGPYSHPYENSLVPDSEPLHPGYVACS
Assay: Bioassay for VEGFR-3 stimulation: viability (MTT) of BaF3 cells expressing a VEGFR-3/EpoR chimera, supplied with VEGF-C
Type: cell-based
Description: For the viability assay, the IL-3 dependent BaF3 cells expressing a VEGFR-3/EpoR chimera (Aschen et al, Eur J Biochem. 267(9):2505-15, 2000) were seeded in 96 well microtiter plates at 15000 cells/well in triplicates in the absence of IL-3 but supplied with the lOOng/ml VEGF-C and a range of concentrations of the selected peptides fused with GST. Cells were cultured for 48 h, during which time the cells incubated in cell culture medium alone had died. The viability of the cells was determined by the MTT reagent, which was added at a concentration of 0.5 mg/ml. After 2 h an equal volume of cell lysis solution was added (10%SDS/10 mM HCl) and allowed to incubate overnight at 37° C. The absorbance was measured at 540 nm.
The effects of the peptides fused to GST on the growth of BaF3-R3/EpoR were assessed using the MTT assay as described above and are depicted in FIG. 1. In this experiment, GST- CGYWLTIWGC (SEQ ID NO: 35) fusion protein was used for the inhibition of VEGF-C binding to VEGFR-3 expressed on BaF3 cells. In this experiment, a 20 uM concentration of the fusion protein sufficed to inhibit the binding completely as measured by the MTT cell death assay.

CGYWLTIWGC (isolated peptide)
competition with VEGF-C binding to VEGFR-3 expressed on BaF3 cells (in words) (BaF3 cells expressing VEGFR-3): competes with VEGF-C binding to VEGFR-3

GST-CGYWLTIWGC: fusion protein of glutathione-S-transferase (GST) with peptide CGYWLTIWGC, produced in E. coli from pGEX-2T ({GST}-CGYWLTIWGC; cysteine pairing not given here; also: GST fusion, dimerising)
concentration that sufficed to inhibit VEGF-C binding to VEGFR-3 completely, as measured by the MTT cell death assay (GST fusion protein, BaF3-R3/EpoR cells, no IL-3, VEGF-C supplied, 48 h): 20 µM
concentration sufficient to completely inhibit VEGF-C/D binding to VEGFR-3 expressed on BaF3 cells (GST fusion protein, BaF3 cells): 20 µM
